Starred links: 1 amine or outer side, 2 acyl side, 3 side chain; linkers in the order of their positions; H or OH if unused. Non-standard residues stand in square brackets, D forms with d. Groups on a side chain read outwards from the residue. *: point of attachment. C20 diacid = O=C(O)CCCCCCCCCCCCCCCCCCC(=O)*; γGlu = O=C(O)[C@H](CCC(=O)[*:2])N[*:1]; AEEA = NCCOCCOCC(=O)O; Aib = CC(C)(N)C(=O)O

Experiment [1] has as its target Human CT receptor (calcitonin receptor) (human), P30988. Briefly: cell-based or functional assay.
Experiment [2] addresses Human AMY1 receptor (amylin receptor 1) (human), P30988. Briefly: cell-based or functional assay.

Sequence of Human AMY1 receptor (amylin receptor 1) (human), P30988 (P30988 25-474, chain 1 of 2): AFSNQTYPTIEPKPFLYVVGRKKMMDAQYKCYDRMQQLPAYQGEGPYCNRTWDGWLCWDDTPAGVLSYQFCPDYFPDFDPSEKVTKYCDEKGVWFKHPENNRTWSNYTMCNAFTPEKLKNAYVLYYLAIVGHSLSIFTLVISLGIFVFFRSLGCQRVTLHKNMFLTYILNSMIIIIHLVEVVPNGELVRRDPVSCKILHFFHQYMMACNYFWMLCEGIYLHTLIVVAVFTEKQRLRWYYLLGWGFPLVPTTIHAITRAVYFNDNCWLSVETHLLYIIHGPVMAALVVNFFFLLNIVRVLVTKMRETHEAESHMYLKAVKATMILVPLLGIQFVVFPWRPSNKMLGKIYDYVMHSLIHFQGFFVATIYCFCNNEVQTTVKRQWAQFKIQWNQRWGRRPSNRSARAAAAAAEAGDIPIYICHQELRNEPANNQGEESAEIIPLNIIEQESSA
Sequence of Human AMY1 receptor (amylin receptor 1) (human), P30988 (O60894 27-148, chain 2 of 2, further chain): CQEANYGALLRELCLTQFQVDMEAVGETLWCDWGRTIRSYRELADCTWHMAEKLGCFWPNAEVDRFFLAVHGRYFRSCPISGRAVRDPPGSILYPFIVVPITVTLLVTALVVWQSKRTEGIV
Sequence of Human CT receptor (calcitonin receptor) (human), P30988 (P30988 25-474): as the sequence (P30988 25-474, chain 1 of 2) above

B1: Compound II (peptide)
peptide: Ac-ASHLSTAVLGK([AEEA-AEEA-γGlu-C20 diacid])LS[Aib]ELHKLEDYPRTDVGAESP-NH2
SMILES: CC(=O)N[C@@H](C)C(=O)N[C@@H](CO)C(=O)N[C@@H](Cc1c[nH]cn1)C(=O)N[C@@H](CC(C)C)C(=O)N[C@@H](CO)C(=O)N[C@H](C(=O)N[C@@H](C)C(=O)N[C@H](C(=O)N[C@@H](CC(C)C)C(=O)NCC(=O)N[C@@H](CCCCNC(=O)COCCOCCNC(=O)COCCOCCNC(=O)CC[C@H](NC(=O)CCCCCCCCCCCCCCCCCCC(=O)O)C(=O)O)C(=O)N[C@@H](CC(C)C)C(=O)N[C@@H](CO)C(=O)NC(C)(C)C(=O)N[C@@H](CCC(=O)O)C(=O)N[C@@H](CC(C)C)C(=O)N[C@@H](Cc1c[nH]cn1)C(=O)N[C@@H](CCCCN)C(=O)N[C@@H](CC(C)C)C(=O)N[C@@H](CCC(=O)O)C(=O)N[C@@H](CC(=O)O)C(=O)N[C@@H](Cc1ccc(O)cc1)C(=O)N1CCC[C@H]1C(=O)N[C@@H](CCCNC(=N)N)C(=O)N[C@H](C(=O)N[C@@H](CC(=O)O)C(=O)N[C@H](C(=O)NCC(=O)N[C@@H](C)C(=O)N[C@@H](CCC(=O)O)C(=O)N[C@@H](CO)C(=O)N1CCC[C@H]1C(N)=O)C(C)C)[C@@H](C)O)C(C)C)[C@@H](C)O
For the molecule B1, the hCT cAMP EC50 (pM) in experiment [1] came out at 40.9 pM. Also, in experiment [2], the hAMY1 cAMP EC50 (pM) was found to be 49.4 pM.

B2: Compound I (peptide)
peptide: Ac-ASHLSTAVLGKLS[Aib]ELHKLEDYPRTDVGAESP-NH2
SMILES: CC(=O)N[C@@H](C)C(=O)N[C@@H](CO)C(=O)N[C@@H](Cc1c[nH]cn1)C(=O)N[C@@H](CC(C)C)C(=O)N[C@@H](CO)C(=O)N[C@H](C(=O)N[C@@H](C)C(=O)N[C@H](C(=O)N[C@@H](CC(C)C)C(=O)NCC(=O)N[C@@H](CCCCN)C(=O)N[C@@H](CC(C)C)C(=O)N[C@@H](CO)C(=O)NC(C)(C)C(=O)N[C@@H](CCC(=O)O)C(=O)N[C@@H](CC(C)C)C(=O)N[C@@H](Cc1c[nH]cn1)C(=O)N[C@@H](CCCCN)C(=O)N[C@@H](CC(C)C)C(=O)N[C@@H](CCC(=O)O)C(=O)N[C@@H](CC(=O)O)C(=O)N[C@@H](Cc1ccc(O)cc1)C(=O)N1CCC[C@H]1C(=O)N[C@@H](CCCNC(=N)N)C(=O)N[C@H](C(=O)N[C@@H](CC(=O)O)C(=O)N[C@H](C(=O)NCC(=O)N[C@@H](C)C(=O)N[C@@H](CCC(=O)O)C(=O)N[C@@H](CO)C(=O)N1CCC[C@H]1C(N)=O)C(C)C)[C@@H](C)O)C(C)C)[C@@H](C)O
In the case of B2, in experiment [1], the hCT cAMP EC50 (pM) came to 31.7 pM. In experiment [2], this molecule came in with a hAMY1 cAMP EC50 (pM) of 49.3 pM.

(Values after patent US20230190944A1.)
